The subject of this data set is T1, GtrR (Burkholderia cenocepacia H111), ORF:a5d7dc98.
T1 sequence: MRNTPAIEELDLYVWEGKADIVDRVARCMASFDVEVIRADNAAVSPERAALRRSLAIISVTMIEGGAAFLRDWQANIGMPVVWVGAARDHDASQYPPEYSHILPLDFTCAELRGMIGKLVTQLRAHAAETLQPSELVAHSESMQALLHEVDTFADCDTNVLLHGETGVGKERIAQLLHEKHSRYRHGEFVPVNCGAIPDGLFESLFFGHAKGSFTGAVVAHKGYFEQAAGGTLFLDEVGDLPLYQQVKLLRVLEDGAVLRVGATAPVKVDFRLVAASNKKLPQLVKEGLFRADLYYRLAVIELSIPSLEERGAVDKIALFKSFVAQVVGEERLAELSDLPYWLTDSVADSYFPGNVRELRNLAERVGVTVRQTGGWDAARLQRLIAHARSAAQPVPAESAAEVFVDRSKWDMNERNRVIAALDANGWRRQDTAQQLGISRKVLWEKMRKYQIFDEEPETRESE
Kind of data set: EMSA. Particulars: Binding reactions per manufacturer's instructions (Thermo), 3'-biotin probes, 5% polyacrylamide gel; buffer, salt, pH and temperature not stated. On the technique in general: Mobility shift assays separate free from complexed probe on a gel.

For “GGCTTGCGTATTTCTGGCCCGGTTGATTGATTTTGGTTGTGATTTTTTGCCACGCAACGTCGAAAACGCATCGCGCGGCCCCAGTTCGCTCTCGTATCGAAAATGAGATTTTCGATTTCGCAGACAATTGTTAAATGCGGAACCGATATCCGTCAACCTGAGAAAACGGGCGGCTTGCGTAAAATCGAAATCGCGGGTACCGGTTTAAGGTTGCAATGCAGCA (double strand) [Bcal3178 promoter 223 bp]”, the binding result is “no binding”.

The record behind these values is publication PMC8174753.
